In the supplement of paper PMC9112550, “Optimization of the antimicrobial peptide Bac7 by deep mutational scanning” (BMC Biology, 2022):

Tested on: Escherichia coli TOP10
Experiment: shrunken log2 fold change of peptide-encoding DNA abundance (4.5 h post-induction vs induction); higher = less antimicrobial activity (less host growth inhibition)
Conditions: time post-induction: 4.5 h; library: site-saturation at positions 5, 18, 19, 20
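Also: peptides expressed intracellularly from a pBAD plasmid library in pooled LB shake-flask culture, induced with 0.3% L-arabinose, DNA abundance read by NGS, three biological replicates, DESeq2 with apeglm shrinkage.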

In order of rising “shrunken log2 fold change” value:
1. RRIRVRPPRLPRPRPRPYECPRP  -1.34
2. RRIRTRPPRLPRPRPRPYYMPRP  -1.06
3. RRIRHRPPRLPRPRPRPYEHPRP  -1.01
4. RRIRYRPPRLPRPRPRPSSYPRP  -0.955
5. RRIRCRPPRLPRPRPRPFTHPRP  -0.818
6. RRIRHRPPRLPRPRPRPSNKPRP  -0.802
7. RRIRSRPPRLPRPRPRPMNSPRP  -0.776
8. RRIRIRPPRLPRPRPRPLIKPRP  -0.756
9. RRIRCRPPRLPRPRPRPNDHPRP  -0.716
10. RRIRNRPPRLPRPRPRPSSGPRP  -0.649
11. RRIRTRPPRLPRPRPRPFPMPRP  -0.596
12. RRIRHRPPRLPRPRPRPRYNPRP  -0.591
13. RRIRARPPRLPRPRPRPYWNPRP  -0.566
14. RRIRSRPPRLPRPRPRPLIYPRP  -0.546
15. RRIRARPPRLPRPRPRPQYTPRP  -0.496
16. RRIRPRPPRLPRPRPRPNTLPRP  -0.468
17. RRIRVRPPRLPRPRPRPCWMPRP  -0.46
18. RRIRERPPRLPRPRPRPPMKPRP  -0.418
19. RRIRERPPRLPRPRPRPWTLPRP  -0.407
20. RRIRTRPPRLPRPRPRPKNMPRP  -0.359
21. RRIRRRPPRLPRPRPRPFSKPRP  -0.348
22. RRIRCRPPRLPRPRPRPDKHPRP  -0.333
23. RRIRPRPPRLPRPRPRPMFCPRP  -0.332
24. RRIRIRPPRLPRPRPRPGHIPRP  -0.327
25. RRIRDRPPRLPRPRPRPCPDPRP  -0.312
26. RRIRDRPPRLPRPRPRPHKNPRP  -0.296
27. RRIRFRPPRLPRPRPRPNIEPRP  -0.288
28. RRIRPRPPRLPRPRPRPHDTPRP  -0.272
29. RRIRDRPPRLPRPRPRPSQTPRP  -0.244
30. RRIRERPPRLPRPRPRPPYGPRP  -0.244
31. RRIRHRPPRLPRPRPRPEYYPRP  -0.241
32. RRIRPRPPRLPRPRPRPYCQPRP  -0.223
33. RRIRFRPPRLPRPRPRPTERPRP  -0.22
34. RRIRFRPPRLPRPRPRPNSIPRP  -0.216
35. RRIRERPPRLPRPRPRPMQCPRP  -0.211
36. RRIRCRPPRLPRPRPRPMLSPRP  -0.202
37. RRIRCRPPRLPRPRPRPKQFPRP  -0.188
38. RRIRYRPPRLPRPRPRPKYEPRP  -0.177
39. RRIRHRPPRLPRPRPRPHIYPRP  -0.169
40. RRIRERPPRLPRPRPRPFPNPRP  -0.165
41. RRIRLRPPRLPRPRPRPGMPPRP  -0.15
42. RRIRTRPPRLPRPRPRPREDPRP  -0.147
43. RRIRVRPPRLPRPRPRPFQHPRP  -0.131
44. RRIRHRPPRLPRPRPRPPLQPRP  -0.127
45. RRIRKRPPRLPRPRPRPQTSPRP  -0.122
46. RRIRNRPPRLPRPRPRPHYVPRP  -0.121
47. RRIRFRPPRLPRPRPRPDRDPRP  -0.119
48. RRIRLRPPRLPRPRPRPASKPRP  -0.116
49. RRIRARPPRLPRPRPRPIYMPRP  -0.11
50. RRIRERPPRLPRPRPRPCWNPRP  -0.107
51. RRIRYRPPRLPRPRPRPHIVPRP  -0.102
52. RRIRMRPPRLPRPRPRPCPMPRP  -0.0993
53. RRIRWRPPRLPRPRPRPQWCPRP  -0.0974
54. RRIRTRPPRLPRPRPRPDEHPRP  -0.0955
55. RRIRRRPPRLPRPRPRPCNDPRP  -0.0872
56. RRIRKRPPRLPRPRPRPFWDPRP  -0.0842
57. RRIRSRPPRLPRPRPRPLVQPRP  -0.0825
58. RRIRHRPPRLPRPRPRPYALPRP  -0.078
59. RRIRARPPRLPRPRPRPQVVPRP  -0.0726
60. RRIRVRPPRLPRPRPRPRKYPRP  -0.0723
61. RRIRCRPPRLPRPRPRPDFTPRP  -0.0655
62. RRIRHRPPRLPRPRPRPQVLPRP  -0.0535
63. RRIRDRPPRLPRPRPRPADKPRP  -0.0463
64. RRIRPRPPRLPRPRPRPMYMPRP  -0.0346
65. RRIRERPPRLPRPRPRPRWKPRP  -0.0289
66. RRIRMRPPRLPRPRPRPCLLPRP  -0.0289
67. RRIRERPPRLPRPRPRPGHIPRP  -0.0236
68. RRIRWRPPRLPRPRPRPMAFPRP  -0.0177
69. RRIRTRPPRLPRPRPRPHGFPRP  -0.0139
70. RRIRYRPPRLPRPRPRPWNRPRP  -0.0135
71. RRIRLRPPRLPRPRPRPGNSPRP  -0.0133
72. RRIRSRPPRLPRPRPRPDTPPRP  -0.0107
73. RRIRQRPPRLPRPRPRPWQPPRP  -0.00999
74. RRIRYRPPRLPRPRPRPQWVPRP  -0.0081
75. RRIRNRPPRLPRPRPRPVSSPRP  -0.00623
76. RRIRNRPPRLPRPRPRPCFEPRP  0.00026
77. RRIRVRPPRLPRPRPRPFKWPRP  0.00238
78. RRIRTRPPRLPRPRPRPMVCPRP  0.0039
79. RRIRLRPPRLPRPRPRPTQEPRP  0.0081
80. RRIRDRPPRLPRPRPRPEVGPRP  0.00896
81. RRIRDRPPRLPRPRPRPDYSPRP  0.0125
82. RRIRWRPPRLPRPRPRPSELPRP  0.0129
83. RRIRERPPRLPRPRPRPFEYPRP  0.0143
84. RRIRKRPPRLPRPRPRPCTGPRP  0.0143
85. RRIRHRPPRLPRPRPRPKQEPRP  0.0169
86. RRIRNRPPRLPRPRPRPDTFPRP  0.0183
87. RRIRGRPPRLPRPRPRPNNKPRP  0.0225
88. RRIRTRPPRLPRPRPRPVKLPRP  0.0303
89. RRIRTRPPRLPRPRPRPIDWPRP  0.042
90. RRIRIRPPRLPRPRPRPMKRPRP  0.0451
91. RRIRDRPPRLPRPRPRPGRLPRP  0.0513
92. RRIRERPPRLPRPRPRPMATPRP  0.0537
93. RRIRHRPPRLPRPRPRPGCYPRP  0.0554
94. RRIRPRPPRLPRPRPRPEVVPRP  0.0581
95. RRIRKRPPRLPRPRPRPDSMPRP  0.0692
96. RRIRDRPPRLPRPRPRPIMNPRP  0.0718
97. RRIRDRPPRLPRPRPRPIKIPRP  0.0725
98. RRIRERPPRLPRPRPRPGTCPRP  0.0777
99. RRIRDRPPRLPRPRPRPPDSPRP  0.0832
100. RRIRCRPPRLPRPRPRPEHSPRP  0.0871
101. RRIRFRPPRLPRPRPRPLHWPRP  0.0916
102. RRIRRRPPRLPRPRPRPLDCPRP  0.107
103. RRIRRRPPRLPRPRPRPGIRPRP  0.108
104. RRIRKRPPRLPRPRPRPWQKPRP  0.121
105. RRIRGRPPRLPRPRPRPAKTPRP  0.121
106. RRIRTRPPRLPRPRPRPAFQPRP  0.125
107. RRIRKRPPRLPRPRPRPIWRPRP  0.132
108. RRIRARPPRLPRPRPRPEHMPRP  0.137
109. RRIRSRPPRLPRPRPRPQRHPRP  0.141
110. RRIRPRPPRLPRPRPRPTGMPRP  0.141
111. RRIRHRPPRLPRPRPRPRIEPRP  0.15
112. RRIRMRPPRLPRPRPRPRIVPRP  0.16
113. RRIRERPPRLPRPRPRPQNVPRP  0.16
114. RRIRWRPPRLPRPRPRPWNWPRP  0.173
115. RRIRCRPPRLPRPRPRPALHPRP  0.179
116. RRIRSRPPRLPRPRPRPIPRPRP  0.202
117. RRIRERPPRLPRPRPRPRTPPRP  0.214
118. RRIRKRPPRLPRPRPRPIYFPRP  0.216
119. RRIRIRPPRLPRPRPRPPGMPRP  0.238
120. RRIRCRPPRLPRPRPRPHKKPRP  0.242
121. RRIRFRPPRLPRPRPRPVQPPRP  0.246
122. RRIRQRPPRLPRPRPRPPVFPRP  0.247
123. RRIRARPPRLPRPRPRPWEQPRP  0.248
124. RRIRWRPPRLPRPRPRPHWMPRP  0.289
125. RRIRVRPPRLPRPRPRPKSQPRP  0.309
126. RRIRARPPRLPRPRPRPECQPRP  0.333
127. RRIRGRPPRLPRPRPRPRIQPRP  0.337
128. RRIRFRPPRLPRPRPRPKGEPRP  0.35
129. RRIRKRPPRLPRPRPRPCREPRP  0.368
130. RRIRSRPPRLPRPRPRPADWPRP  0.405
131. RRIRWRPPRLPRPRPRPEITPRP  0.437
132. RRIRSRPPRLPRPRPRPGWFPRP  0.44
133. RRIRKRPPRLPRPRPRPVGFPRP  0.485
134. RRIRGRPPRLPRPRPRPHPDPRP  0.502
135. RRIRSRPPRLPRPRPRPARGPRP  0.574
136. RRIRKRPPRLPRPRPRPVVWPRP  0.602
137. RRIRERPPRLPRPRPRPECGPRP  0.612
138. RRIRARPPRLPRPRPRPFATPRP  0.66
139. RRIRGRPPRLPRPRPRPTMVPRP  0.786
140. RRIRCRPPRLPRPRPRPEADPRP  0.819
141. RRIRWRPPRLPRPRPRPTRTPRP  0.83
142. RRIRWRPPRLPRPRPRPPFWPRP  0.836
143. RRIRARPPRLPRPRPRPARKPRP  0.898
144. RRIRGRPPRLPRPRPRPVRSPRP  0.902
145. RRIRRRPPRLPRPRPRPPGAPRP  0.972
146. RRIRGRPPRLPRPRPRPGVMPRP  1.05
147. RRIRMRPPRLPRPRPRPRVNPRP  1.08
148. RRIRLRPPRLPRPRPRPLRTPRP  1.18
149. RRIRMRPPRLPRPRPRPGTDPRP  1.19
150. RRIRGRPPRLPRPRPRPEGEPRP  1.97
